# Measured values published in patent publication US6274553A, “Method for stabilizing peptides and freeze-dried medicinal compositions containing peptides obtained by using the method” (Japan Energy Corporation, priority 1997, dated 2001).
# B1: hirudin variant HV1C3: Hirudin variant having the amino acid sequence shown by Sequence No. 1 (JP Laid-open No. 173798/1992) (protein)
# chain: VVYTDCTESGQNLCLCEGSNVCGQGNKCILGSDGEKNQCVTGEGTPKPQSHNQGDFEPIPEDAYDE
# Columns and labels:
# Assay type in all cases: physicochemical
# [1] = Amount of isomers in lyophilized HV1C3 stored at 60° C., saccharose/mannitol (Experiment Example 5); conditions: pH 5.5, 5 mM tartaric acid
# Description: In the same manner as in Experiment Example 1, hirudin variant HV1C3, purified saccharose, and mannitol were dissolved in purified water to a concentration of 6 mg/ml (0.86 mM) of hirudin variant HV1C3 and concentrations of purified saccharose and mannitol respectively shown in Table 6. The solution was adjusted to pH 5.5 using 5 mM tartaric acid to obtain a peptide solution. The peptide solutions for which the pH was adjusted and the peptide solution before pH adjustment were filtered through a 0.22 μm membrane filter. The filtrates were filled into 6 ml vials in the amount of 1 ml for each vial and lyophilized.
# The lyophilized samples were stored in an incubator at 60° C. and removed from the incubator after 4 and 8 weeks, respectively. […] was added to each vial removed. Solutions further diluted 50-fold were subjected to liquid chromatography to measure a peak area percentage of isomers other than the hirudin variant HV1C3.
# [2] = Storage stability of lyophilized HV1C3 at 60° C., pH with tartaric acid (Experiment Example 3); conditions: saccharose, mannitol
# Description: Hirudin variant HV1C3, purified saccharose, and mannitol were dissolved in purified water to a final concentration of 6 mg/ml (0.86 mM), 1.6 mg/ml (4.7 mM), and 10 mg/ml (55 mM), respectively. The resulting solution was divided into four equal portions. Three of these portions were adjusted to pHs 5.0, 5.5, and 6.0 using 30 mM tartaric acid. The peptide solutions for which the pH was thus adjusted and the peptide solution without pH adjustment were filtered through a 0.22 μm membrane filter. The filtrates were filled into 6 ml vials in the amount of 1 ml for each vial. 50 such vials were prepared for each pH of the solution, 200 vials in total. All these 200 vials were lyophilized.
# The lyophilized samples were stored in an incubator at 60° C. and removed from the incubator after 1, 2, 3, 4, 5, 6, 7, and 8 weeks, respectively. 1 ml of purified water was added to each vial removed. Solutions further diluted 50-fold were used to measure the amount (percentage) of the hirudin variant HV1C3 remaining in the lyophilized sample in the same manner as in Experiment Example 1.
# [3] = Storage stability of lyophilized HV1C3 at 60° C., tartaric acid concentration (Experiment Example 4)
# Description: Hirudin variant HV1C3 and purified saccharose were dissolved in purified water to a final concentration of 6 mg/ml (0.866 mM) and 1.6 mg/ml (4.7 mM), respectively. The resulting solution was divided into four equal portions. Three of these portions were adjusted to pH 5.5 using 5 mM of tartaric acid, 10 mM of tartaric acid, and 30 mM of tartaric acid, respectively. Mannitol was added to a solution without pH adjustment to a concentration of 10 mg/ml (55 mM). These solutions were filtered through a 0.22 μm membrane filter. The filtrates were filled into 6 ml vials in the amount of 1 ml for each vial. 50 such vials were prepared for each pH of the solution, 200 vials in total. All these 200 vials were lyophilized.
# The lyophilized samples were stored in an incubator at 60° C. and removed from the incubator after 1, 2, 3, 4, 5, and 6 weeks, respectively. 1 ml of purified water was added to each vial removed. The amount (percentage) of the hirudin variant HV1C3 remaining in the lyophilized sample was determined in the same manner as in Experiment Example 1.
# [4] = no saccharose, mannitol 10 mg/ml
# [5] = purified saccharose 1.6 mg/ml, mannitol 10 mg/ml
# [6] = purified saccharose 1.6 mg/ml, no mannitol
# [7] = tartaric acid 0 mM, without pH adjustment, mannitol 10 mg/ml, saccharose
# [8] = tartaric acid 5 mM, pH 5.5, saccharose
# [9] = tartaric acid 10 mM, pH 5.5, saccharose
# [10] = tartaric acid 30 mM, pH 5.5, saccharose
molecule,measurement,setting,value
B1,The amount of isomers (%) 4 weeks,[1]; [4],6.93%
same,The amount of isomers (%) 8 weeks,[1]; [4],7.99%
same,The amount of isomers (%) 4 weeks,"[1]; no saccharose, no mannitol",5.72%
same,The amount of isomers (%) 8 weeks,"[1]; no saccharose, no mannitol",6.13%
same,The amount of isomers (%) 4 weeks,[1]; [5],7.23%
same,The amount of isomers (%) 8 weeks,[1]; [5],8.58%
same,The amount of isomers (%) 4 weeks,[1]; [6],4.90%
same,The amount of isomers (%) 8 weeks,[1]; [6],5.00%
same,Remaining peptide (%) 1 wk,"[2]; pH 5.0, 30 mM tartaric acid",97.6%
same,Remaining peptide (%) 2 wks,"[2]; pH 5.0, 30 mM tartaric acid",96.1%
same,Remaining peptide (%) 3 wks,"[2]; pH 5.0, 30 mM tartaric acid",93.2%
same,Remaining peptide (%) 4 wks,"[2]; pH 5.0, 30 mM tartaric acid",91.8%
same,Remaining peptide (%) 5 wks,"[2]; pH 5.0, 30 mM tartaric acid",91.7%
same,Remaining peptide (%) 6 wks,"[2]; pH 5.0, 30 mM tartaric acid",89.9%
same,Remaining peptide (%) 7 wks,"[2]; pH 5.0, 30 mM tartaric acid",69.1%
same,Remaining peptide (%) 8 wks,"[2]; pH 5.0, 30 mM tartaric acid",86.6%
same,Remaining peptide (%) 1 wk,"[2]; pH 5.5, 30 mM tartaric acid",98.4%
same,Remaining peptide (%) 2 wks,"[2]; pH 5.5, 30 mM tartaric acid",97.6%
same,Remaining peptide (%) 3 wks,"[2]; pH 5.5, 30 mM tartaric acid",95.9%
same,Remaining peptide (%) 4 wks,"[2]; pH 5.5, 30 mM tartaric acid",95.2%
same,Remaining peptide (%) 5 wks,"[2]; pH 5.5, 30 mM tartaric acid",92.4%
same,Remaining peptide (%) 6 wks,"[2]; pH 5.5, 30 mM tartaric acid",92.2%
same,Remaining peptide (%) 7 wks,"[2]; pH 5.5, 30 mM tartaric acid",91.9%
same,Remaining peptide (%) 8 wks,"[2]; pH 5.5, 30 mM tartaric acid",90.6%
same,Remaining peptide (%) 1 wk,"[2]; pH 6.0, 30 mM tartaric acid",98.4%
same,Remaining peptide (%) 2 wks,"[2]; pH 6.0, 30 mM tartaric acid",97.6%
same,Remaining peptide (%) 3 wks,"[2]; pH 6.0, 30 mM tartaric acid",96.6%
same,Remaining peptide (%) 4 wks,"[2]; pH 6.0, 30 mM tartaric acid",96.1%
same,Remaining peptide (%) 5 wks,"[2]; pH 6.0, 30 mM tartaric acid",94.6%
same,Remaining peptide (%) 6 wks,"[2]; pH 6.0, 30 mM tartaric acid",93.6%
same,Remaining peptide (%) 7 wks,"[2]; pH 6.0, 30 mM tartaric acid",91.8%
same,Remaining peptide (%) 8 wks,"[2]; pH 6.0, 30 mM tartaric acid",92.2%
same,Remaining peptide (%) 1 wk,[2]; without pH adjustment,96.9%
same,Remaining peptide (%) 2 wks,[2]; without pH adjustment,94.2%
same,Remaining peptide (%) 3 wks,[2]; without pH adjustment,92.3%
same,Remaining peptide (%) 4 wks,[2]; without pH adjustment,90.9%
same,Remaining peptide (%) 5 wks,[2]; without pH adjustment,89.9%
same,Remaining peptide (%) 6 wks,[2]; without pH adjustment,88.2%
same,Remaining peptide (%) 7 wks,[2]; without pH adjustment,87.2%
same,Remaining peptide (%) 8 wks,[2]; without pH adjustment,86.1%
same,Remaining peptide (%) 1 wk,[3]; [7],97.0%
same,Remaining peptide (%) 2 wks,[3]; [7],94.0%
same,Remaining peptide (%) 3 wks,[3]; [7],92.0%
same,Remaining peptide (%) 4 wks,[3]; [7],91.0%
same,Remaining peptide (%) 5 wks,[3]; [7],87.8%
same,Remaining peptide (%) 6 wks,[3]; [7],86.5%
same,Remaining peptide (%) 1 wk,[3]; [8],98.8%
same,Remaining peptide (%) 2 wks,[3]; [8],98.6%
same,Remaining peptide (%) 3 wks,[3]; [8],97.6%
same,Remaining peptide (%) 4 wks,[3]; [8],97.5%
same,Remaining peptide (%) 5 wks,[3]; [8],97.0%
same,Remaining peptide (%) 6 wks,[3]; [8],96.9%
same,Remaining peptide (%) 1 wk,[3]; [9],98.5%
same,Remaining peptide (%) 2 wks,[3]; [9],98.1%
same,Remaining peptide (%) 3 wks,[3]; [9],97.2%
same,Remaining peptide (%) 4 wks,[3]; [9],96.9%
same,Remaining peptide (%) 5 wks,[3]; [9],96.4%
same,Remaining peptide (%) 6 wks,[3]; [9],96.1%
same,Remaining peptide (%) 1 wk,[3]; [10],97.9%
same,Remaining peptide (%) 2 wks,[3]; [10],96.8%
same,Remaining peptide (%) 3 wks,[3]; [10],96.1%
same,Remaining peptide (%) 4 wks,[3]; [10],94.7%
same,Remaining peptide (%) 5 wks,[3]; [10],94.1%
same,Remaining peptide (%) 6 wks,[3]; [10],93.5%
